Assay results: article PMC2756588

T1: Bud14, P27637
T1 sequence (P27637 247-328, looked up): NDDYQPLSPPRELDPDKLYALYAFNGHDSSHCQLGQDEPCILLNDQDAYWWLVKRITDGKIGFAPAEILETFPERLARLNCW

T2: Bbc1, P47068
T2 sequence (P47068 1-78, looked up): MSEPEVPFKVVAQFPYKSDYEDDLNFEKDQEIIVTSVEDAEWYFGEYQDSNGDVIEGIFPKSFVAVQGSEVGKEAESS

T3: Cyk3, Q07533
T3 sequence (Q07533 1-83, looked up): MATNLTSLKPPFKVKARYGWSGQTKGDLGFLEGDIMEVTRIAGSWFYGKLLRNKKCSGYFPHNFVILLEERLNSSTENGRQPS

T4: Bzz1-1, P38822
T4 sequence (P38822 478-572, looked up): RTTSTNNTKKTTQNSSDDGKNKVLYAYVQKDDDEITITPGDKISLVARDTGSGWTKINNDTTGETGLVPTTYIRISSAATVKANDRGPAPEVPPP

T5: Fus1, P11710
T5 sequence (P11710 432-512, looked up): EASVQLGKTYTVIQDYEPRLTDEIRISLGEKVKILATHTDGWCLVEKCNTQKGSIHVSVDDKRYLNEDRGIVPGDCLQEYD

T6: Bzz1-2, P38822
T6 sequence (P38822 568-633, looked up): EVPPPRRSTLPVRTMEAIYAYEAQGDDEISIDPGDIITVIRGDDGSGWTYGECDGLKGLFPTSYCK

T7: Myo5, Q04439
T7 sequence (Q04439 1072-1160, looked up): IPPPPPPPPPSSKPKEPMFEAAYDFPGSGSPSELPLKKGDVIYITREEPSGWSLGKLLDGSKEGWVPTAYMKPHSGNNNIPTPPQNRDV

T8: Sla1-3, P32790
T8 sequence (P32790 344-424, looked up): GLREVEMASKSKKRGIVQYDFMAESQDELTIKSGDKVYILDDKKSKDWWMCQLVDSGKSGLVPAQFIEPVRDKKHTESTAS

T9: Sla1-2, P32790
T9 sequence (P32790 60-140, looked up): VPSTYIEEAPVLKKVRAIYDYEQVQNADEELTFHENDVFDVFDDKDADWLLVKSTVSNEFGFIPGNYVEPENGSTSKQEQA

T10: Cdc25, P04821
T10 sequence (P04821 50-136, looked up): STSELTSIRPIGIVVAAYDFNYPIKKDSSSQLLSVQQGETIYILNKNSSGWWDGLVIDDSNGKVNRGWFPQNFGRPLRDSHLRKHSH

T11: Nbp2, Q12163
T11 sequence (Q12163 103-180, looked up): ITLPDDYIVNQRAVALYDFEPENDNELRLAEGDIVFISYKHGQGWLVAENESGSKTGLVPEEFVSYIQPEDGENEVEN

T12: Boi1, P38041
T12 sequence (P38041 1-86, looked up): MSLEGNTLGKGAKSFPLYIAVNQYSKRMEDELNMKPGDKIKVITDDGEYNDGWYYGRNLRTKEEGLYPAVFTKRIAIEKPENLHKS

T13: Abp1, P15891
T13 sequence (P15891 535-592, looked up): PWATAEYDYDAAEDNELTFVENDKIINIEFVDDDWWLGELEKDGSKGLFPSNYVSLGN

T14: Lsb1, P53281
T14 sequence (P53281 45-122, looked up): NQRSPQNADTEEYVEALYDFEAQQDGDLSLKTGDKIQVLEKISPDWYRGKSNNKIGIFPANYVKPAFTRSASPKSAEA

T15: Pex13, P80667
T15 sequence (P80667 295-386, looked up): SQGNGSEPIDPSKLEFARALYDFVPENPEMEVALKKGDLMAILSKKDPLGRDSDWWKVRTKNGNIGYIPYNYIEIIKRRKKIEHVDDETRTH

T16: Hof1, Q05080
T16 sequence (Q05080 590-669, looked up): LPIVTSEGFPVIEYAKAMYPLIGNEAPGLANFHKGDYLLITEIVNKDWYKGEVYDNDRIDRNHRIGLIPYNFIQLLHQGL

T17: Hse1, P38753
T17 sequence (P38753 208-285, looked up): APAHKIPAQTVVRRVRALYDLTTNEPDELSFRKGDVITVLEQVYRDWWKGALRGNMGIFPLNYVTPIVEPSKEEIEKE

T18: Boi2, P39969
T18 sequence (P39969 32-116, looked up): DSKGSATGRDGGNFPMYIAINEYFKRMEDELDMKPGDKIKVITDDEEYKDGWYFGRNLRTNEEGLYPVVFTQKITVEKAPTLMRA

T19: Lsb4, P32793
T19 sequence (P32793 402-468, looked up): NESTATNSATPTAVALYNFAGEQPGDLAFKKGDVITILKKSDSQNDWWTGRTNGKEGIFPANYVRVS

T20: Lsb3, P43603
T20 sequence (P43603 385-451, looked up): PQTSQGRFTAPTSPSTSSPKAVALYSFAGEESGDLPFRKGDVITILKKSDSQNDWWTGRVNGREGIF

T21: Pin3, Q06449
T21 sequence (Q06449 53-122, looked up): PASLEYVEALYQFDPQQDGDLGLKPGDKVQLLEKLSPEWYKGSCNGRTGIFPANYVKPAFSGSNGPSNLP


What was measured:
Test in all cases: SPOT array
[1] = biological target: T1, Bud14, P27637; settings: median of control spots 956
[2] = biological target: Sho1, P40073; settings: median of control spots 1148
Chain of Sho1, P40073 (P40073 287-367): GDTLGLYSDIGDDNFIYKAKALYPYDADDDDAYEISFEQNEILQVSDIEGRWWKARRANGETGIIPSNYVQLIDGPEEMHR

[3] = biological target: T2, Bbc1, P47068; settings: median of control spots 796
[4] = biological target: T3, Cyk3, Q07533; settings: median of control spots 1451
[5] = biological target: T4, Bzz1-1, P38822; settings: median of control spots 4446
[6] = biological target: T5, Fus1, P11710; settings: median of control spots 1200
[7] = biological target: T6, Bzz1-2, P38822; settings: median of control spots 4538
[8] = biological target: T7, Myo5, Q04439; settings: median of control spots 471
[9] = biological target: T8, Sla1-3, P32790; settings: median of control spots 5475
[10] = biological target: T9, Sla1-2, P32790; settings: median of control spots 712
[11] = biological target: T10, Cdc25, P04821; settings: median of control spots 969
[12] = biological target: T11, Nbp2, Q12163; settings: median of control spots 357
[13] = biological target: Bem1-1, P29366; settings: median of control spots 4282
Chain of Bem1-1, P29366 (P29366 55-141): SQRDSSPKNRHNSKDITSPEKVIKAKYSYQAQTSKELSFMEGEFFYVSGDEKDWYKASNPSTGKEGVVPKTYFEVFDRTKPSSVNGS

[14] = biological target: GST; settings: median of control spots 978
[15] = biological target: T12, Boi1, P38041; settings: median of control spots 1162
[16] = biological target: T13, Abp1, P15891; settings: median of control spots 935
[17] = biological target: Rvs167, P39743; settings: median of control spots 2707
Chain of Rvs167, P39743 (P39743 419-482): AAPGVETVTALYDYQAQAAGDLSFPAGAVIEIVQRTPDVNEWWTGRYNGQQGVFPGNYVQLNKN

[18] = biological target: T14, Lsb1, P53281; settings: median of control spots 388
[19] = biological target: T15, Pex13, P80667; settings: median of control spots 1341
[20] = biological target: T16, Hof1, Q05080; settings: median of control spots 4086
[21] = biological target: Myo3, P36006; settings: median of control spots 468
[22] = biological target: T17, Hse1, P38753; settings: median of control spots 1727
[23] = biological target: T18, Boi2, P39969; settings: median of control spots 1161
[24] = biological target: T19, Lsb4, P32793; settings: median of control spots 397
[25] = biological target: Bem1-2, P29366; settings: median of control spots 4347
Chain of Bem1-2, P29366 (P29366 139-227): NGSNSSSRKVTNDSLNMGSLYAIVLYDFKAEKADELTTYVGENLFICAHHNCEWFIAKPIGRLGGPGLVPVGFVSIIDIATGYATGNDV

[26] = biological target: T20, Lsb3, P43603; settings: median of control spots 406
[27] = biological target: T21, Pin3, Q06449; settings: median of control spots 2171

SPOT intensity [1] | SPOT intensity [2] | SPOT intensity [3] | SPOT intensity [4] | SPOT intensity [5] | SPOT intensity [6] | SPOT intensity [7] | SPOT intensity [8] | SPOT intensity [9] | SPOT intensity [10] | SPOT intensity [11] | SPOT intensity [12] | SPOT intensity [13] | SPOT intensity [14] | SPOT intensity [15] | SPOT intensity [16] | SPOT intensity [17] | SPOT intensity [18] | SPOT intensity [19] | SPOT intensity [20] | other results | Binder
24 | 39 | 348 | 7 | 2 | 17 | 0 | 0 | 35 | 0 | 24 | 11 | 2 | 5 | 0 | 103 | 0 | 215 | 4 | 5 | SPOT intensity [21]: 6; SPOT intensity [22]: 17; SPOT intensity [23]: 0; SPOT intensity [24]: 1; SPOT intensity [25]: 15; SPOT intensity [26]: 2; SPOT intensity [27]: 9 | RRTRLRPPTPLSQLL
12 | 60 | 377 | 12 | 0 | 19 | 3 | 1 | 25 | 6 | 20 | 67 | 3 | 4 | 1 | 204 | 9 | 94 | 0 | 6 | SPOT intensity [21]: 11; SPOT intensity [22]: 8; SPOT intensity [23]: 6; SPOT intensity [24]: 34; SPOT intensity [25]: 15; SPOT intensity [26]: 52; SPOT intensity [27]: 2 | RSVKRPRRAPRPVVS
36 | 259 | 235 | 12 | 4 | 92 | 16 | 10 | 128 | 37 | 94 | 104 | 6 | 9 | 14 | 270 | 3 | 60 | 17 | 10 | SPOT intensity [21]: 50; SPOT intensity [22]: 41; SPOT intensity [23]: 12; SPOT intensity [24]: 25; SPOT intensity [25]: 27; SPOT intensity [26]: 35; SPOT intensity [27]: 70 | RMVRRRPLRVQFSAR
13 | 52 | 15 | 3 | 3 | 3 | 8 | 0 | 38 | 1 | 13 | 11 | 2 | 1 | 1 | 46 | 3 | 29 | 3 | 4 | SPOT intensity [21]: 0; SPOT intensity [22]: 16; SPOT intensity [23]: 2; SPOT intensity [24]: 1; SPOT intensity [25]: 4; SPOT intensity [26]: 0; SPOT intensity [27]: 11 | TIRRRAPLSLLESHT
